Measured values from US20160347834A1 (ZENOAQ RESOURCE, published 2016).

Key:
[1] = biological target: T1, human podoplanin on glioblastoma cells LN319 (human, UniProt Q86YL7 23-162); test: flow cytometry on LN319 cells, culture supernatant
T1 construct: Podoplanin of the LN319 cell line itself; also called LN 319 cells; podoplanin expression strain
T1 chain: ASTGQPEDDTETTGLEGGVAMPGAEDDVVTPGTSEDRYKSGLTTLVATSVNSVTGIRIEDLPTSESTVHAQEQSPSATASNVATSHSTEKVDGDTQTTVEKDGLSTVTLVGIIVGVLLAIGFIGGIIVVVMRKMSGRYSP

[2] = biological target: T2, synthetic peptide of human podoplanin from position 69 to position 88 (human); test: ELISA on synthetic peptides
T2 peptide: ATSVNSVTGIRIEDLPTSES

[3] = biological target: T1, human podoplanin on glioblastoma cells …; test: flow cytometry on LN319 cells, antibody 1 µg/ml
Experimental: (§1) Reactivity of the anti-podoplanin antibodies (LpMab-2, LpMab-3, LpMab-7, and LpMab-9) with a podoplanin expression strain was studied by flow cytometry. […] The reaction products were each reacted further with an anti-mouse IgG-FITC antibody (product of Life Technologies) at 4° C. for 30 minutes. As a negative control, only the secondary antibody of each of them was used. Fluorescence intensity was measured using EC800 (product of Sony).

[4] = biological target: T3, human podoplanin on mesothelial cells Met-5A (human, UniProt Q86YL7 23-162); test: flow cytometry on Met-5A cells, antibody 1 µg/ml
T3 construct: Podoplanin of the cell line itself; also called normal mesothelial cells; normal epithelial cell line (Met-5A)
T3 chain: T1 chain
Experimental: as §1

[5] = biological target: T4, human podoplanin on lung squamous cell cancer tissue (paraffin section) (human, UniProt Q86YL7 23-162); test: immunohistostaining of paraffin sections (FIG. 8)
T4 chain: T1 chain
Experimental: (§2) Various paraffin sections were deparaffined in xylene and ethanol solutions. Antigen activation operation was not performed. The endogenous peroxidase was inactivated with 3% H₂O₂. Blocking was performed at room temperature for 10 minutes with SuperBlock (product of Thermo Fisher) and the primary antibody was reacted at room temperature for one hour. After amplification using a LSAB kit (product of Dako), color was developed using DAB (product of Dako).
(§3) LpMab-23 is a cancer cell-specific antibody. […] LpMab-7 used as a positive control reacted with both cancer cells and lymphatic epithelial cells.

[6] = biological target: T5, human podoplanin on esophageal squamous cell cancer tissue (paraffin section) (human, UniProt Q86YL7 23-162); test: immunohistostaining of paraffin sections (FIG. 8)
T5 construct: also called esophagus squamous cell cancer
T5 chain: T1 chain
Experimental: as §2, §3

[7] = biological target: T6, human podoplanin on glioblastoma tissue (paraffin section) (human, UniProt Q86YL7 23-162); test: immunohistostaining of paraffin sections (FIG. 8)
T6 chain: T1 chain
Experimental: as §2, §3

[8] = biological target: T7, human podoplanin on seminoma tissue (paraffin section) (human, UniProt Q86YL7 23-162); test: immunohistostaining of paraffin sections (FIG. 8)
T7 chain: T1 chain
Experimental: as §2, §3

[9] = biological target: T8, human podoplanin on renal epithelial cells HEK-293T (human, UniProt Q86YL7 23-162); test: flow cytometry on HEK-293T cells, antibody 1 µg/ml
T8 construct: Podoplanin of the cell line itself; also called normal renal epithelial cells
T8 chain: T1 chain
Experimental: as §1

[10] = biological target: T9, human podoplanin on oral cancer cells HSC3/hPDPN (human, UniProt Q86YL7 23-162); test: flow cytometry on HSC3/hPDPN cells, antibody 1 µg/ml
T9 construct: Podoplanin gene expression strain; also called oral cancer cell line
T9 chain: T1 chain
Experimental: as §1

[11] = biological target: T10, human podoplanin on malignant mesothelioma cells Y-MESO14-hPDPN (human, UniProt Q86YL7 23-162); test: flow cytometry on Y-MESO14-hPDPN cells, antibody 1 µg/ml
T10 construct: Podoplanin gene expression strain
T10 chain: T1 chain
Experimental: as §1

[12] = biological target: T11, human podoplanin on lung squamous cell cancer cells RERF-LC-AI-hPDPN (human, UniProt Q86YL7 23-162); test: flow cytometry on RERF-LC-AI-hPDPN cells, antibody 1 µg/ml
T11 construct: Podoplanin gene expression strain
T11 chain: T1 chain
Experimental: as §1

[13] = biological target: T12, human podoplanin on lymphatic endothelial cells (human, UniProt Q86YL7 23-162); test: flow cytometry on lymphatic endothelial cells, antibody 1 µg/ml
T12 construct: Normal cells; cultured cells in flow cytometry, cells in paraffin sections in immunohistostaining (see assay of each row); also called lymphatic epithelial cells; lymphatic cells
T12 chain: T1 chain
Experimental: as §1

[14] = biological target: T13, human podoplanin on normal alveolar epithelial cells (paraffin section) (human, UniProt Q86YL7 23-162); test: immunohistostaining of a normal lung paraffin section (FIG. 4D)
T13 construct: also called normal lung
T13 chain: T1 chain
Experimental: (§4) Various paraffin sections were deparaffined in xylene and ethanol solutions. The resulting sections were autoclaved for 20 minutes using an antigen activator reagent (citrate buffer (pH 6.0): product of Dako). Endogenous peroxidase was inactivated with 3% H₂O₂. After blocking at room temperature for 10 minutes with SuperBlock (product of Thermo Fisher), a primary antibody was reacted at room temperature for one hour. After amplification using a LSAB kit (product of Dako), color was developed using DAB (product of Dako).
(§5) LpMab-2 is a tumor-specific antibody. […] LpMab-7 reacted with both (FIG. 4B), which coincided with the data of flow cytometry. LpMab-2 reacted with neither normal alveolar epithelial cells nor lymphatic cells (FIG. 4C). The LpMab-7 on the other hand stained alveolar epithelial cells and lymphatic vessel (FIG. 4D).

[15] = biological target: T14, human podoplanin on testicular tumor cells (paraffin section) (human, UniProt Q86YL7 23-162); test: immunohistostaining of a testicular tumor paraffin section (FIG. 4B)
T14 construct: also called tumor portion of testicular tumor
T14 chain: T1 chain
Experimental: as §4, §5

Measured: binding result

B1: chLpMab-23 (antibody, human IgG1, kappa, V domains shown)
VH: QVQLKESGPGLVAPSQSLSITCTVSGFSVTSYGIHWVRQPPGKGLEWLGVIWTSGNTNYNSALMSRLSISRDNSKSQVFLKMNSLQTDDTAMYYCAREDYYGYAMDYWGQGTSVTVSS
VL: not shown
notes: Variable regions of LpMab-23 with human IgG1 constant region; Culture supernatant used; also called human chimeric LpMab-23 antibody
binds: [1]

B2: LpMab-7 (antibody)
heavy: DVQLVESGGGLVQPGGSRKLSCAASGFTFSGFGMHWVRQAPEKGLEWVAYISSVSSRIYYADTVKGRFTISRDNPKNTLFLQMTSLRSEDTAMYYCAREQTGPAWFAYWGQGTLVTVSAAKTTPPSVYPLAPGSAAQTNSMVTLGCLVKGYFPEPVTVTWNSGSLSSGVHTFPAVLQSDLYTLSSSVTVPSSTWPSETVTCNVAHPASSTKVDKKIVPRDCGCKPCICTVPEVSSVFIFPPKPKDVLTITLTPKVTCVVVDISKDDPEVQFSWFVDDVEVHTAQTQPREEQFNSTFRSVSELPIMHQDWLNGKEFKCRVNSAAFPAPIEKTISKTKGRPKAPQVYTIPPPKEQMAKDKVSLTCMITDFFPEDITVEWQWNGQPAENYKNTQPIMDTDGSYFVYSKLNVQKSNWEAGNTFTCSVLHEGLHNHHTEKSLSHSPGK
light: DVLMTQTPLSLPVSLGDQASISCRSSRNIVQSTGNTYLEWYLQKPGQSPKLLIFKVSNRFSGVPDRFSGSGSGTDFTLKISRVEAEDLGVYYCFQGSHVPPWTFGGGTKLEIKRADAAPTVSIFPPSSEQLTSGGASVVCFLNNFYPKDINVKWKIDGSERQNGVLNSWTDQDSKDSTYSMSSTLTLTKDEYERHNSYTCEATHKTSTSPIVKSFNRNEC
notes: Mouse IgG1, kappa, from hybridoma; Entries may hold the signal peptide
binds: [2] | [3] | [4] | [5] | [6] | [7] | [8] | [9] | [10] | [11] | [12] | [13] | [14] | [15]

B3: chLpMab-7 (antibody, human IgG1, kappa)
heavy: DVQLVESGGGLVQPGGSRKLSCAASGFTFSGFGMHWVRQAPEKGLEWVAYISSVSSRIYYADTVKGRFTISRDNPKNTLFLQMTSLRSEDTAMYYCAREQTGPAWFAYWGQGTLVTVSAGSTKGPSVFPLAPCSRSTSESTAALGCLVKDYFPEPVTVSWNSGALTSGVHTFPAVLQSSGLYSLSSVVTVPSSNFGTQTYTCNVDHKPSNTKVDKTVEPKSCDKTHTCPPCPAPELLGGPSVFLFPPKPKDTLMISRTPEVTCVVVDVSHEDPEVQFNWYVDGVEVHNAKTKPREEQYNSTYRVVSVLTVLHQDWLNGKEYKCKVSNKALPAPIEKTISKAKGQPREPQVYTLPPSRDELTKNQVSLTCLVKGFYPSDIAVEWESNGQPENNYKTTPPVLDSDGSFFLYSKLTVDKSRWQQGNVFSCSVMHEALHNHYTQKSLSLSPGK
light: B2 light
notes: culture supernatant used; also called human chimeric LpMab-7
binds: [1]

B4: rLpMab-7 (antibody, mouse IgG1, kappa)
heavy: B2 heavy
light: B2 light
notes: Full-length H and L chain of LpMab-7 expressed in CHO cells; also called recombinant LpMab-7
binds: [1]

B5: chLpMab-3 (antibody, human IgG1, kappa, V domains shown)
VH: EVQLVESGGGLVKPGGSLKLSCAASGFTFTRYAMSWVRQTPEKRLEWVATISNGGSYTYYLDSVKGRFTLSRDNAKNTLYLQMSSLRSEDTAMYYCARREGGQAGPAWFVYWGQGTLVTVSA
VL: DIVMTQSPSSLAMSVGQKVTMNCKSSQSLLNSSNQKNYLAWYQQKPGQSPKLLVYFASTRESGVPDRFIGSGSGTDFTLTISSAQAEDLADYFCQQYYSTPPTFGAGTKLELKR
notes: culture supernatant used; also called human chimeric LpMab-3
binds: [1]
